Reference: paper PMC2756588

T1: Bud14, P27637
T1 sequence (P27637 247-328, looked up): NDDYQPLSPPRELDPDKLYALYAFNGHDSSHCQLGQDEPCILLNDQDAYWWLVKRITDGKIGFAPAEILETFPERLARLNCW

T2: Lsb4, P32793
T2 sequence (P32793 402-468, looked up): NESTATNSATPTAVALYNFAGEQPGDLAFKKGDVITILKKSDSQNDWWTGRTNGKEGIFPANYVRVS

T3: Bbc1, P47068
T3 sequence (P47068 1-78, looked up): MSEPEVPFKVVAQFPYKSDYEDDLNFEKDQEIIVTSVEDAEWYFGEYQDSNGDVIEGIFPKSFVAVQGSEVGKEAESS

T4: Boi1, P38041
T4 sequence (P38041 1-86, looked up): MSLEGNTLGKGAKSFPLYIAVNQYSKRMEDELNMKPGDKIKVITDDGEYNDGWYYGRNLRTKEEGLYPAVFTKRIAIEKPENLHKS

T5: Lsb3, P43603
T5 sequence (P43603 385-451, looked up): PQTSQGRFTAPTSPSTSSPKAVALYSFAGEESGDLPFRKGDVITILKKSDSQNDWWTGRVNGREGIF

T6: Bzz1-2, P38822
T6 sequence (P38822 568-633, looked up): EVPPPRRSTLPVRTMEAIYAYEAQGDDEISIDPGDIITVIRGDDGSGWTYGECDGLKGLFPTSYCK

T7: Lsb1, P53281
T7 sequence (P53281 45-122, looked up): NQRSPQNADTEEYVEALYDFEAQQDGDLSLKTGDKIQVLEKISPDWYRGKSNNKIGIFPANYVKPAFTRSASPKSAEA

T8: Hse1, P38753
T8 sequence (P38753 208-285, looked up): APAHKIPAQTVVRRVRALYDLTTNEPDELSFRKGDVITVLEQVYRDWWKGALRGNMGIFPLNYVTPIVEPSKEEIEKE

T9: Nbp2, Q12163
T9 sequence (Q12163 103-180, looked up): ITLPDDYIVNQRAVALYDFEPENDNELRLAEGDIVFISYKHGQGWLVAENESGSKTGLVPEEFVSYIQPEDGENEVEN

T10: Bzz1-1, P38822
T10 sequence (P38822 478-572, looked up): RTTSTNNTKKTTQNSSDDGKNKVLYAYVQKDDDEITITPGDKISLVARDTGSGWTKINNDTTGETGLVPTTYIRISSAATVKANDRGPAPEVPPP

T11: Pex13, P80667
T11 sequence (P80667 295-386, looked up): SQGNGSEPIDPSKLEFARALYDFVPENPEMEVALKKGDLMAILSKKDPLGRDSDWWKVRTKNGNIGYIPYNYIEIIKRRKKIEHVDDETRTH

T12: Boi2, P39969
T12 sequence (P39969 32-116, looked up): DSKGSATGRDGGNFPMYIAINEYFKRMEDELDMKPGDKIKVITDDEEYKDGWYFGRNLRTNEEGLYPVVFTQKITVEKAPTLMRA

T13: Sla1-3, P32790
T13 sequence (P32790 344-424, looked up): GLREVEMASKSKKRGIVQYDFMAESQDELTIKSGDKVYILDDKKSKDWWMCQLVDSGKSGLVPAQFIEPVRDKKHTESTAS

T14: Cyk3, Q07533
T14 sequence (Q07533 1-83, looked up): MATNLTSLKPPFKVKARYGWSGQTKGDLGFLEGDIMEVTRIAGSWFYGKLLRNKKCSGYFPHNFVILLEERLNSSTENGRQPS

T15: Hof1, Q05080
T15 sequence (Q05080 590-669, looked up): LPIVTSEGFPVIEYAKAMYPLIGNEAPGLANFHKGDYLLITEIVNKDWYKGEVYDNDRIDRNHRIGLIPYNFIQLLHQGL

T16: Fus1, P11710
T16 sequence (P11710 432-512, looked up): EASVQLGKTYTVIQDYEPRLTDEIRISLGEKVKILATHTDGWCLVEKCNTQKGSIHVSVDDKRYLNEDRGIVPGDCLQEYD

T17: Sla1-2, P32790
T17 sequence (P32790 60-140, looked up): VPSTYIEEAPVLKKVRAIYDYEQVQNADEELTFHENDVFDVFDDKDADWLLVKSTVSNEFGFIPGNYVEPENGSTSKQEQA

T18: Abp1, P15891
T18 sequence (P15891 535-592, looked up): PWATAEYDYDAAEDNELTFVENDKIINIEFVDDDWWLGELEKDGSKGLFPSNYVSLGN

T19: Cdc25, P04821
T19 sequence (P04821 50-136, looked up): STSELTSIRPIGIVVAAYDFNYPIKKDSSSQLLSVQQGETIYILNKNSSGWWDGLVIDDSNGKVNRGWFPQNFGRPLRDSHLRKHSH

T20: Myo5, Q04439
T20 sequence (Q04439 1072-1160, looked up): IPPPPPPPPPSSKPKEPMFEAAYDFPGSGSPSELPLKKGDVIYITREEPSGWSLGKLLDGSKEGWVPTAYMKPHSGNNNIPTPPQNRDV

T21: Pin3, Q06449
T21 sequence (Q06449 53-122, looked up): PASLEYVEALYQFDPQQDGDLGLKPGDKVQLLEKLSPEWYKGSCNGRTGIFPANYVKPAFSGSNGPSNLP


What was measured:
Assay in all cases: SPOT array
Bud14, P27637 = molecular target: T1, Bud14, P27637; conditions: median of control spots 956
GST = conditions: median of control spots 978
Lsb4, P32793 = molecular target: T2, Lsb4, P32793; conditions: median of control spots 397
Bbc1, P47068 = molecular target: T3, Bbc1, P47068; conditions: median of control spots 796
Boi1, P38041 = molecular target: T4, Boi1, P38041; conditions: median of control spots 1162
Lsb3, P43603 = molecular target: T5, Lsb3, P43603; conditions: median of control spots 406
Bzz1-2, P38822 = molecular target: T6, Bzz1-2, P38822; conditions: median of control spots 4538
Lsb1, P53281 = molecular target: T7, Lsb1, P53281; conditions: median of control spots 388
Hse1, P38753 = molecular target: T8, Hse1, P38753; conditions: median of control spots 1727
Nbp2, Q12163 = molecular target: T9, Nbp2, Q12163; conditions: median of control spots 357
Bzz1-1, P38822 = molecular target: T10, Bzz1-1, P38822; conditions: median of control spots 4446
Pex13, P80667 = molecular target: T11, Pex13, P80667; conditions: median of control spots 1341
Boi2, P39969 = molecular target: T12, Boi2, P39969; conditions: median of control spots 1161
Sla1-3, P32790 = molecular target: T13, Sla1-3, P32790; conditions: median of control spots 5475
Myo3, P36006 = conditions: median of control spots 468
Cyk3, Q07533 = molecular target: T14, Cyk3, Q07533; conditions: median of control spots 1451
Hof1, Q05080 = molecular target: T15, Hof1, Q05080; conditions: median of control spots 4086
Bem1-2, P29366 = conditions: median of control spots 4347
Rvs167, P39743 = conditions: median of control spots 2707
Fus1, P11710 = molecular target: T16, Fus1, P11710; conditions: median of control spots 1200
Bem1-1, P29366 = conditions: median of control spots 4282
Sla1-2, P32790 = molecular target: T17, Sla1-2, P32790; conditions: median of control spots 712
Abp1, P15891 = molecular target: T18, Abp1, P15891; conditions: median of control spots 935
Cdc25, P04821 = molecular target: T19, Cdc25, P04821; conditions: median of control spots 969
Myo5, Q04439 = molecular target: T20, Myo5, Q04439; conditions: median of control spots 471
Sho1, P40073 = conditions: median of control spots 1148
Pin3, Q06449 = molecular target: T21, Pin3, Q06449; conditions: median of control spots 2171

Bem1-1, P29366, sequence (P29366 55-141): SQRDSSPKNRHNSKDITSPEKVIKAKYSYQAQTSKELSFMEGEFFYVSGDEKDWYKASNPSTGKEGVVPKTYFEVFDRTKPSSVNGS
Rvs167, P39743, sequence (P39743 419-482): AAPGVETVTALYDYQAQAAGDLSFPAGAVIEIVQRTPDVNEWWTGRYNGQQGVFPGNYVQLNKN
Sho1, P40073, sequence (P40073 287-367): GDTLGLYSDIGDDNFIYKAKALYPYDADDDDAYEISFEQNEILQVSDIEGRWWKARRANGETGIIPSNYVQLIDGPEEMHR
Bem1-2, P29366, sequence (P29366 139-227): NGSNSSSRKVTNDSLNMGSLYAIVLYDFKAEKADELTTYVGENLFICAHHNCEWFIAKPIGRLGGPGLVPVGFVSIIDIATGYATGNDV

Binder	SPOT intensity (Bud14, P27637)	SPOT intensity (GST)	SPOT intensity (Lsb4, P32793)	SPOT intensity (Bbc1, P47068)	SPOT intensity (Boi1, P38041)	SPOT intensity (Lsb3, P43603)	SPOT intensity (Bzz1-2, P38822)	SPOT intensity (Lsb1, P53281)	SPOT intensity (Hse1, P38753)	SPOT intensity (Nbp2, Q12163)	SPOT intensity (Bzz1-1, P38822)	SPOT intensity (Pex13, P80667)	SPOT intensity (Boi2, P39969)	SPOT intensity (Sla1-3, P32790)	SPOT intensity (Myo3, P36006)	SPOT intensity (Cyk3, Q07533)	SPOT intensity (Hof1, Q05080)	SPOT intensity (Bem1-2, P29366)	SPOT intensity (Rvs167, P39743)	SPOT intensity (Fus1, P11710)	further results
LFMKGTPEFPKSGFS	1	0	50	1	0	8	0	67	2	5	0	211	0	0	54	0	0	0	1	0	SPOT intensity (Bem1-1, P29366): 0; SPOT intensity (Sla1-2, P32790): 5; SPOT intensity (Abp1, P15891): 85; SPOT intensity (Cdc25, P04821): 0; SPOT intensity (Myo5, Q04439): 48; SPOT intensity (Sho1, P40073): 17; SPOT intensity (Pin3, Q06449): 40
VYTRTAFQIPGDDKI	0	3	0	0	0	0	3	1120	0	0	0	0	0	0	0	0	0	0	0	0	SPOT intensity (Bem1-1, P29366): 0; SPOT intensity (Sla1-2, P32790): 1; SPOT intensity (Abp1, P15891): 0; SPOT intensity (Cdc25, P04821): 2; SPOT intensity (Myo5, Q04439): 0; SPOT intensity (Sho1, P40073): 0; SPOT intensity (Pin3, Q06449): 29
PSRRAPLQLPQLVNK	0	1	2	12	0	0	0	313	0	0	0	1	0	0	0	0	0	0	0	0	SPOT intensity (Bem1-1, P29366): 2; SPOT intensity (Sla1-2, P32790): 0; SPOT intensity (Abp1, P15891): 45; SPOT intensity (Cdc25, P04821): 0; SPOT intensity (Myo5, Q04439): 0; SPOT intensity (Sho1, P40073): 17; SPOT intensity (Pin3, Q06449): 5
PVLPPPRSPNRPTLS	0	1	325	151	849	102	9	39	0	0	8	86	1280	6	22	0	9	6	6	0	SPOT intensity (Bem1-1, P29366): 1; SPOT intensity (Sla1-2, P32790): 442; SPOT intensity (Abp1, P15891): 133; SPOT intensity (Cdc25, P04821): 0; SPOT intensity (Myo5, Q04439): 6; SPOT intensity (Sho1, P40073): 0; SPOT intensity (Pin3, Q06449): 7
